B1: Tyrosine-protein kinase CSK (Homo sapiens), P41240 (parent)
chain: MSAIQAAWPSGTECIAKYNFHGTAEQDLPFCKGDVLTIVAVTKDPNWYKAKNKVGREGIIPANYVQKREGVKAGTKLSLMPWFHGKITREQAERLLYPPETGLFLVRESTNYPGDYTLCVSCDGKVEHYRIMYHASKLSIDEEVYFENLMQLVEHYTSDADGLCTRLIKPKVMEGTVAAQDEFYRSGWALNMKELKLLQTIGKGEFGDVMLGDYRGNKVAVKCIKNDATAQAFLAEASVMTQLRHSNLVQLLGVIVEEKGGLYIVTEYMAKGSLVDYLRSRGRSVLGGDCLLKFSLDVCEAMEYLEGNNFVHRDLAARNVLVSEDNVAKVSDFGLTKEASSTQDTGKLPVKWTAPEALREKKFSTKSDVWSFGILLWEIYSFGRVPYPRIPLKDVVPRVEKGYKMDAPDGCPPAVYEVMKNCWHLDAAMRPSFLQLREQLEHIKTHELHL

Variants of: B1
Settings: with src_chick SRC

Variant	effect of a mutation on the interaction
R283A	decreasing interaction
R279A	decreasing interaction
R389A	decreasing interaction

The remaining lines, values ahead:

effect of a mutation on the interaction	Variant
decreasing interaction	R384A
decreasing interaction	R281A

— IntAct's records for PubMed 18614016
